Data published in PMC6053440, “Cellular stress induces erythrocyte assembly on intravascular von Willebrand factor strings and promotes microangiopathy” (Scientific Reports, 2018).

Molecular target: T1, von Willebrand factor, human plasmatic (human, UniProt P04275 764-2813)
T1 construct: von Willebrand factor, human, from plasma; multimeric glycoprotein; Multimer of disulfide-linked subunits; The results call the VWF of the ELISA recombinant, but the methods name plasmatic VWF; also called VWF; plasmatic VWF; source: bought: Calbiochem (human plasmatic VWF)
T1 sequence (P04275 764-2813): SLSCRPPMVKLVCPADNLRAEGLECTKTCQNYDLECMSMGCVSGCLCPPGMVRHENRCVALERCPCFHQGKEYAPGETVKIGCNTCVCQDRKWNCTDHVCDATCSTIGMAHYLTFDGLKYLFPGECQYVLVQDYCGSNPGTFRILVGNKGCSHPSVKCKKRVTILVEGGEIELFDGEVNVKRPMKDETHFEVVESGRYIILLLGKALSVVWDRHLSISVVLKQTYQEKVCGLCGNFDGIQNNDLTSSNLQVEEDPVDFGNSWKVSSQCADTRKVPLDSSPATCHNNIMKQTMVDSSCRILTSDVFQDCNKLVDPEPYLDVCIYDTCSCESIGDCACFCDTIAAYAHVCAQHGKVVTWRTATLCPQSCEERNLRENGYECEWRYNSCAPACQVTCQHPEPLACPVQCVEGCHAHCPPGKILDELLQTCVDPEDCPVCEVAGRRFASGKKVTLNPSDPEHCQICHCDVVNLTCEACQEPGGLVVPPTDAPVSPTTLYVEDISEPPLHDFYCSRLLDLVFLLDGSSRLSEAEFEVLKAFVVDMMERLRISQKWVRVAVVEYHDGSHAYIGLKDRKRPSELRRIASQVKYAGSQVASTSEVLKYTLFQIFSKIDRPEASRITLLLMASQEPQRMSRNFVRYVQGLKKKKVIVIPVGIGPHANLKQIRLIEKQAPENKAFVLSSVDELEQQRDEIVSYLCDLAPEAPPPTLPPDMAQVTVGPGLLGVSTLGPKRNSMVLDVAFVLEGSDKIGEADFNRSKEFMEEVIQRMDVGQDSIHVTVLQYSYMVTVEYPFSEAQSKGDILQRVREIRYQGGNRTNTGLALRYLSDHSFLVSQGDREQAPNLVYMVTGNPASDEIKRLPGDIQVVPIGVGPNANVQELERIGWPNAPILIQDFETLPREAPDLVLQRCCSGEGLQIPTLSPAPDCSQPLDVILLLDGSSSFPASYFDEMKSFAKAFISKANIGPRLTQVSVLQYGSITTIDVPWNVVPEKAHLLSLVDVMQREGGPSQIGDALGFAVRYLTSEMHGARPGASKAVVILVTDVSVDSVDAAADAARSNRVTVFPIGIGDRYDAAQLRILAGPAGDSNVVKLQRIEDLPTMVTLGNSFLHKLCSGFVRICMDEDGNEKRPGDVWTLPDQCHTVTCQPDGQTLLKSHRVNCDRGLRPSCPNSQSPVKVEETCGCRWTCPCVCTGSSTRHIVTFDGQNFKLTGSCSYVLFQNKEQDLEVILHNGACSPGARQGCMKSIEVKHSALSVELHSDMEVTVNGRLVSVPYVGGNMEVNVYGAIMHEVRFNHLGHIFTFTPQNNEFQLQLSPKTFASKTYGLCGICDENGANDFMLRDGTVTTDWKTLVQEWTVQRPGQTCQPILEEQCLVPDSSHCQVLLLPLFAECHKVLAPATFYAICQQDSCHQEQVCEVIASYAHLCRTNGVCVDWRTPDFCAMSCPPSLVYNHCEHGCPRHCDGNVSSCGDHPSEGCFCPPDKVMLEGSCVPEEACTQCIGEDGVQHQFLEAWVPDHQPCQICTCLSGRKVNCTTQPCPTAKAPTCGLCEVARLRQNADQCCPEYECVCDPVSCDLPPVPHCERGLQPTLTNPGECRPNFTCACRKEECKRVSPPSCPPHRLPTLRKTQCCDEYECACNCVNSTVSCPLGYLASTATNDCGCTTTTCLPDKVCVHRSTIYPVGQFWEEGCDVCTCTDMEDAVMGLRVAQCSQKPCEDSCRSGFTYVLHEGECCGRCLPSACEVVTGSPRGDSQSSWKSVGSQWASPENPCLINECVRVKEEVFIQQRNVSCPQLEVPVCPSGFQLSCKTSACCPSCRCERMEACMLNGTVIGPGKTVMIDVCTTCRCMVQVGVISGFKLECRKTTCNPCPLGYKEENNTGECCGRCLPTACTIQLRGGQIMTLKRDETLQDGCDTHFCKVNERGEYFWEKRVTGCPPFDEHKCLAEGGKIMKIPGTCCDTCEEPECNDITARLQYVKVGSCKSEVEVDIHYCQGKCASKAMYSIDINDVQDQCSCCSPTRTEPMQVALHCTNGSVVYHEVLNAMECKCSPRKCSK
Experiment: ELISA; 96-well plates coated with 20 µg/ml AV; human plasmatic VWF added at 0.15, 0.5, 1.0 and 1.5 µg/ml; bound VWF detected colorimetrically with peroxidase-labelled anti-human VWF antibody; washing with calcium-free buffer
Conditions: both partners purified

binding result: binds
B1: Annexin V (natural protein, human, UniProt P08758 1-320, looked up)
chain: MAQVLRGTVTDFPGFDERADAETLRKAMKGLGTDEESILTLLTSRSNAQRQEISAAFKTLFGRDLLDDLKSELTGKFEKLIVALMKPSRLYDAYELKHALKGAGTNEKVLTEIIASRTPEELRAIKQVYEEEYGSSLEDDVVGDTSGYYQRMLVVLLQANRDPDAGIDEAQVEQDAQALFQAGELKWGTDEEKFITIFGTRSVSHLRKVFDKYMTISGFQIEETIDRETSGNLEQLLLAVVKSIRSIPAYLAETLYYAMKGAGTDDHTLIRVMVSRSEIDLFNIRKEFRKNFATSLYSMIKGDTSGDYKKALLLLCGEDD
notes: Annexin V (annexin A5), human, purified from placenta; The methods of the ELISA name AV purified from human placenta (Sigma-Aldrich), but the results call it recombinant AV; In the flow adhesion experiments purified recombinant AV (BD Biosciences, 10 µg/ml) was added, and the erythrocytes' own AV was also present; also called AV; source: bought: Sigma-Aldrich, purified AV from human placenta
